The labels stand for the following.
B1: CPEB3 Ribozyme (parent)
chain: UAACAGGGGGCCACAGCAGAAGCGUUCACGUCGCAGCCCCUGUCAGAUUCUGGUGAAUCUGCGAAUUCUGCUGUAUAUCUC

In this data set the parent is B1. The experiment in a line: self-cleavage, relative activity (ratio to wild type); higher = more cleavage; in vitro, sequencing. The method in brief:
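CPEB3 self-cleaving ribozyme mutant libraries were made by rounds of error-prone PCR, barcoded, and transcribed in vitro with T7 RNA polymerase for 5 hours at 37°C. Cleavage occurred during transcription and a 15 min DNase I step before EDTA stop. RNAs were reverse transcribed with template switching and Illumina-sequenced, with DNA sequencing mapping barcodes to variants. Relative activity is the variant's cleaved/total read fraction divided by wild type's (minimum 5 reads), averaged across three batches.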
Take G8C A18G: the self-cleavage turned out to be 0.27.
For C37G C62G, the self-cleavage was found to be 0.5.
With C23U U31A the figure was 0.23; with U51A C71U, 0.73.
For A28U C37U, the self-cleavage is 0.41.
In the case of U31C U69A it was 0.37; in that of A21G U43C, 0.33; in that of C12G A15G, 0.1.
Consider U66C G73U, for which the self-cleavage amounted to 1.02.
With A21U C39U the figure was 0.2; with G30A A45U, 0.32.
With A21G U66C the figure was 1.05; with A21G C79U, 0.76; with A47U U80G, 0.8.
With C50A A57U the figure was 0.22; with G8A G52A, 0.3; with A56U C71G, 0.26.
For U25C U49A, the self-cleavage was determined as 0.3.
In the case of U26A A56C it was 0.49; in that of G10C U49C, 0.22.
On to U48A U60C, for which the self-cleavage was 0.14.
In the case of U48A U60G it was 0.19; in that of C11A C62U, 0; in that of A13C U69C, 0.52.
C23A U60A: the self-cleavage came to 0.19.
For A2G G33C, the self-cleavage amounted to 0.32.
For A47U U54A, the self-cleavage was found to be 0.72.
In the case of C32U U43C it was 0.25; in that of A13U U51G, 1.27.
In the case of C34G U60C it was 0.15.
In the case of G22C U78A it was 0.06.
With G42A A77U, the self-cleavage amounted to 0.39.
In the case of U49C A64U it was 0.24; in that of U1A A20G, 0.72; in that of U49C G55A, 0.18.
Consider A45C U60C, for which the self-cleavage was 0.41.
In the case of G16A A45C it was 0.14; in that of A56G G73U, 1.15.
In the case of A2G G6A, the self-cleavage was found to be 0.59.
With G7A A45U the figure was 0.16; with G9A A20U, 0.43; with C62U U74G, 0.19.
With A2U G6A the figure was 0.66; with A5G A65C, 0.25; with C34U U74A, 0.52.
Regarding U67A A77G, the self-cleavage came to 0.57.
With C29A U74A the figure was 0.62.
With U48C U66C the figure was 0.27; with G6A A13C, 0.4.
With U41C U54C the figure was 1.03; with C29U U31A, 0.2; with U41A C68A, 0.17.
As to U25G C27U, the self-cleavage amounted to 0.39.
With C14U U76C the figure was 1.15; with C34U G46A, 0.07.
C37U U80C: the self-cleavage was found to be 0.74.
In the case of U51A U78C it was 0.83; in that of C12U G53A, 1.18.
With C11U G24A the figure was 0.22; with U49A G70U, 0.24; with A3C A18U, 0.73.
In the case of U41G U51A it was 0.37; in that of A18U U43A, 0.64.
On to U25C U26C, for which the self-cleavage is 0.27.
As to C4U C23G, the self-cleavage was found to be 0.53.
In the case of A3U G9A it was 0.58; in that of C29U U43C, 0.31.
For the variant C32A U67A, the self-cleavage was found to be 0.13.
With A28U A64U the figure was 0.31; with C71A A77U, 0.36.
In the case of U41C A77C it was 1.09.
With A20U U66C the figure was 0.28.
As for U58A U66C, the self-cleavage amounted to 0.29.
Consider G22A U48G, for which the self-cleavage is 0.32.
In the case of A13G G22A it was 0.19; in that of U58C A64G, 0.36; in that of A20C U72A, 0.33.
Consider A56U U72A, for which the self-cleavage amounted to 0.46.
In the case of A5U C62U it was 0.22; in that of A5U C62G, 0.49; in that of A35C U69C, 0.46.
In the case of U48G U69C it was 0.34.
For the variant C37A U76C, the self-cleavage was 0.35.
As to C27U U60C, the self-cleavage stood at 0.14.
In the case of G9C A21U it was 0.23; in that of G10C G73A, 0.35; in that of U48C U78G, 0.94.
In the case of C62A U72C it was 0.24; in that of U43A A45G, 0.75; in that of C11G U41C, 0.67.
With A5G C12U the figure was 1.12; with U31C U58A, 0.31.
In the case of C12U A77C, the self-cleavage is 1.03.
With G33A U78A the figure was 0.04; with G33A A56G, 0.28.
With G10C U48C the figure was 0.22; with G33U U72C, 0.19.
With G6A C17A the figure was 0.54.
For the variant U41C G52A, the self-cleavage amounted to 1.18.
In the case of G9A A64G it was 0.3; in that of C39A U78C, 0.26.
In the case of C4U U60C it was 0.75.
With A57G U69C the figure was 0.48.
As to A2G U69G, the self-cleavage came out at 0.46.
In the case of A45G C59A it was 0.63; in that of C29A A64G, 0.37.
With C59U U78C the figure was 0.94; with G24C A77U, 0.09; with G9U U78C, 0.2.
In the case of U43G U78C, the self-cleavage stood at 0.28.
In the case of G30A U60A it was 0.08.
As to U51C C62G, the self-cleavage was determined as 0.39.
Take A45G A65U: the self-cleavage worked out at 0.27.
With U58C U74C the figure was 0.87; with G6U U41A, 0.35.
With U1A G16A the figure was 0.38; with C44A A64C, 0.18.
For C37G, the self-cleavage was 0.8.
In the case of A35U U72G, the self-cleavage stood at 0.54.
For the variant C44U U54A, the self-cleavage amounted to 0.36.
On to A64G U72A, for which the self-cleavage stood at 0.67.
With U25A U31C the figure was 0.17.
In the case of A5G U26C it was 0.44.
For G8A A18U, the self-cleavage turned out to be 0.07.
In the case of C12G U26C it was 0.24.
With C12G U67C the figure was 0.08; with A3C U25A, 0.4.
A13G C71G: the self-cleavage stood at 0.12.
In the case of G16U A47G it was 0.32; in that of A35G C62U, 0.34; in that of A5U C23G, 0.08.
In the case of A15G U80C, the self-cleavage is 1.06.
With G9A G24C the figure was 0.2; with C29U U67A, 0.29; with G33U A57G, 0.28.
In the case of U74G it was 1.24; in that of C40U U78C, 0.56.
In the case of G6A C37U it was 0.2.
Regarding G53U, the self-cleavage was 1.21.
Turning to C37U A64G, the self-cleavage is 0.6.
In the case of A15C A47G, the self-cleavage amounted to 0.85.
Regarding U25G A65G, the self-cleavage amounted to 0.26.
Take U31C A57G: the self-cleavage was found to be 0.75.
In the case of U31A C62U it was 0.26; in that of G36A U72A, 0.26.
In the case of G46C U51A it was 0.25.
In the case of A15U C27U it was 0.19; in that of A13G U54G, 0.76.
As to U25A U58A, the self-cleavage turned out to be 0.27.
With U43C A45C the figure was 0.3; with A2U G8U, 0.28; with U54A G61A, 0.73.
In the case of G7A U74A it was 0.09; in that of U26A U49A, 0.49; in that of G22U A45G, 0.22.
On to U26C C29G, for which the self-cleavage was 0.35.
Regarding G10U U43C, the self-cleavage came out at 0.34.
With A15U C17G the figure was 0.36; with A64G U67C, 0.25.
In the case of C37G A45G it was 0.7.
In the case of U26G A57G, the self-cleavage was 0.27.
In the case of A15U U69C it was 0.35; in that of U66A U67A, 0.26.
In the case of U60C A75U it was 0.57; in that of C32A U80C, 0.69; in that of G19A C59U, 0.17.
With G53A G73C the figure was 1.14.

Values taken from the RNAGym collection of RNA variant scans (doi:10.1093/nar/gkz1192).
